Assay results reported in the supplement of paper PMC9942255.
Where “and” joins values, the source holds several entries; their conditions need not be identical. Identical values can stand only once.

These sequences were tested on Bacillus subtilis DB104 (SP-AmyQ fusion secretion) (assay: AmyQ secretion efficiency, weighted average sort bin (1 = best secretion, 10 = worst) (bin number (weighted average, 1-10)); higher = lower secretion efficiency).
How it was run: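 Designed signal peptides were fused to mature AmyQ and expressed from the amyE locus in B. subtilis DB104, and this library was loaded at about 0.3 cells per ~65 nL alginate bead together with fluorescein-starch. After about 13 h of growth at room temperature and nile red staining, occupied beads were split into 10 equally populated bins by green/red fluorescence ratio using large-particle flow cytometry. Amplicons from every bin were Illumina-sequenced. The secretion score is the average bin number weighted by read frequency and normalised to beads per bin, excluding low-abundance sequences.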

Point of comparison: MKKKQVMLALTAAAGLGLTALHSAPAAKLAPL, AmyQ secretion efficiency 4.96. Against it:
- MPYLKRVLLLLVTGLFMSLFAVTATCSAQTG — lower, 1.27
- MKFVKRRIRRKRTILMLSVTSLFALQPSAKAAEH — lower, 3.06
- MKKVLMAFIICLSLILRRRKKPPSGAKAESV — higher, 7.24
- MSMVMLATALFLGLTPAGANAADL — higher, 5.37
- MKKWMITIAMLKKKRRRLFVFISPLKSHKT — higher, 7.47
- MKSKWMSRKLLVAVGFSFTQVMVHAGET — higher, 6.44
- MKKWIYVVLVLSIAGIGGFSVHIASS — higher, 6.47
- MLKKKWMVGLLAGCLAAGGFSYNTFATEN — higher, 5.24
- MKRFSTAYLLLLGILCSAAVFLIGAPSRALGAEV — lower, 3.05
- MKKAFLVFLSVVLVTTVFLVKQQESVSGAQAKQL — lower, 4.03
- MKKRLIAPMLLSAASLAFFAMSGSAQARKK — higher, 5.79
- MKTKTLFIFSAILTFAPNETFAQTA — lower, 2.34
- MKRKLLSSLAISALSLGLLVRKRTASFAAES — higher, 6.75
- MNKLKRLSMLTVMIASVFIFSSHSLAAQY — lower, 2.4
- MKLWMRKTLVVLFTIVTFGLVIATFTTVAVSPPAALMADKP — lower, 4.44
- MRKTIFAFLTGLMMFEDDEEDASASPD — higher, 5.45
- MKKVLMAFIICLSLILSVLAAPPSGSAVSAKAESV — lower, 2.05
- MKKQIITATTAVVLGSTLFAGAYSAQSI — higher, 5.58
- MKKKQVMLALTAAAGLGLTALHSAPACKAAPL — lower, 2.29
- MFKRGIQAFAGGIILATAVLAAVFYLTDEDQAAAV — higher, 5.98
- MKKIGLLFMLCLAALRRRKRKRQQADAAEA — higher, 6.59
- MKKSKQSGRLFLGLTPAGANAADL — higher, 6.97
- MLFLLVSLRVWMVFLMNWVTPDRKTAAAAVY — higher, 6.62
- MTMLRKIIGWILLLCIIPLFAFTVIASGAPV — higher, 6.61
- MRKTIFAFLTGLMMFKRRKKKASASPD — higher, 7.76
- MKLAKRVSALTPSTTLAITAKAAPL — higher, 8.19
- MKLWMRKTLVVLFTIVTFGLVSPPAALMYDKP — lower, 3.73
- MSRIRIPMTLALGAALTIAPLSFASAEEN — lower, 3.2
- MRPVFPLILSAVLFLSCFFAATVFFASASKR — higher, 7
- MFNRLFRVCFLAALIMAFTLPNSAYAQKP — lower, 2.14
- MKKLLAAGIIGLLTVSIASPSFAADD — lower, 2.83
- MTMLRKIIGWILLLCIIVSVAATITLIPLFAFTVIASGKEV — lower, 4.26
- MKKAAAVLLSLGLVFGFSYGAGHVAEYKTK — higher, 6.37
- MKKGIIRFLLVSFVLFFALRRKKKRVQAAPA — higher, 5.81
- MKVLLSALLLLLFAFEPSASGAKR — lower, 4.45
- MTMSSGMSSILAVSVLLLLSRLPVQASLTSE — lower, 4.1
- MKSKGSIMACKKKKSFTITTFINTETISAFSN — higher, 7.29
- MKWMCSTCCAAVLLAGGAAQAEAV — lower, 2.63
- MKKKLAAGLTASAIVGTTLVVTPDEAATI — higher, 5.54
- MNKPTKLKKKKALAAGMTAAAAGGAGTIHAQQP — higher, 8.12
- MLCVMMLLFSAIASFPVSAQAASR — higher, 6.18
- MKKTIMSFVAVAALSTTAFGAHFSAKEI — lower, 4.73
- MFKKLLLATSALTFSLSLVLRRKKKHAKAQEV — higher, 5.87
- MKRLLVSLRVWMVFLMNWVTRKRRKKAAAAVY — higher, 5.91
- MRMLWRSKRRCKLALTLAPCAQAAEP — higher, 7.06
- MKRKLLSSLAISALSLGLLVSAPTASFARKR — lower, 3.11
- MKKLSLGVASAALGLALVGGGTWAAFN — higher, 6
- MFKFKKNFLVGLSAALMSISLFSATASAADD — lower, 3.08
- MKSCKQLIVCSLAAILLLIPSVSFAKRK — lower, 2.42
- MNIKKFAKQATVLTFTTALLAGGATQAFAKKR — lower, 3.43
- MLKKIALTLCPAIVGSLLFFTAPASAHVE — lower, 2.48
- MKSKGSIMACLILFSFTITDEINTETISAFSN — higher, 6.09
- MKSCKQKQVCSLAAILLLIPSVSFAADS — higher, 6.15
- MKKRITYSLLALLAVVAFAFTDSSKAKKAEA — lower, 4.79
- MKKCLLFLTTIALILSLSTNAFAANR — lower, 1.56
- MLCVMMLLFSAIASFPVSKQAKDQ — higher, 7.19
- MKKLLAAGIIGLLTVSIASPSFWAEK — higher, 7.9
- MTKKAWFLPLVCVLLISGWLAPAASMSAQTT — lower, 3.47
- MTKKAWFLPLVCVLLISGWLAPAASASPQTT — lower, 2.48
- MAIIIAIIAAVIVIAALITFNVRNMSPG — higher, 7.67
- MRGKSAVLLSLIMLIAGFLISFEFQM — higher, 5.74
- MRSYIKVLTMCFLGLILFVPTALFDNS — higher, 7.14
- MKKWMITIAMLILAGIALFVFIFSPLKSHKT — higher, 7.63
- MGLGKKLSVAVAASFMSLSISLPGVQVAEG — lower, 3.6
- MNFKKTITTSSSVVSALSISALALSVSGVASAHEI — lower, 4.04
- MKIRKILLSSALSFGMLISAVPALFAGT — higher, 5.97
- MRKTIFAFLTGLMMFKKRTAASASPD — higher, 6.93
- MRKKRTIFAFLTGLMMFGTITAASASPD — lower, 4.56
- MKLKKRVSMFLVALTMCGGLFVTPAKAEEE — lower, 2.9
- MKKWIYGGQTGKIAGIGGFSVHAASS — higher, 6.97
- MKSKGSIMACLILFSFTITTFINTETRSAFSN — higher, 8.47
- MKLAKRVSALTPSTTLAIEEEEAKAKEL — higher, 7.01
- MKKRKRRNFKRFIAAFLVLALMISLVPADVLKKST — higher, 6.16
- MLKKKWMVGLLAGCLAAGGFSYNDFATEN — higher, 5.83
- MKKAAAVLLSLGLVFGFSYGAGHVVPTAAEAKTK — lower, 4.57
- MLKKIALTLCPAIVGSLLFFTAPASMHVS — lower, 4.09
- MKKKQVMLALTAAAGLGLTALHSAPAAKQAPL — lower, 4.93
- MKTKTLFIFSAILTLSIRKPNRTFAQTA — higher, 6.8
- MKKKLAAGLTASAIVGTTLVVTPREAATI — higher, 6.83
- MRIFKKAVFVIMISFLIATVNVNTAHGAID — higher, 5.43
- MNKLKRLSMLTVMIASVFIFSSHALVAQY — higher, 5.99
- MKKRFFGPIILAFILFAGTASAIAIPS — higher, 5.82
- MKKRITYSLLALLAVVAFAFTDSSKSKAAEA — lower, 3.09
- MTMLRKIIGWILLLCIIPLFAFTVIASCKEV — higher, 8.74
- MRMLWRSRRKCKRRLTLAPCAQAAEP — higher, 5.33
- MKKGIIRFLLVSFVLFFALKKRITGVQAAPA — higher, 6.43
- MKRLTLVCSIVFILFILFYDLKIGTIPIQDLPVYEESAKTA — higher, 5.76
- MKKMLGKSRYGAGILVFFAVVVKDVFAAGL — lower, 4.68
- MTGSLLSSLAISALSLGLLVSAPTASFAAES — higher, 5.96
- MKLAKRVSALTPSTTLAITNKAKEL — higher, 7.12
- MKIRKILLSSALSFGMLKDKVPALAAGT — higher, 6.36
- MKVLLSALLLLLFAFEPSASCKKL — lower, 4.65
- MRHKSITFILAVVVIIIIGNMIGGGGGSEATSK — higher, 6.79
- MKKWLIIAVSLAIAIVLFMYTAGEAKAAGM — lower, 2.74
- MKKKLAAGLTASAIVGTTLVVTPPEAATI — higher, 5.33
- MKSKGSIMACLILFSFTITTFINTETISVFSN — higher, 7.71
- MKKWIYVVLVLSIAGIGGFSDHAASS — higher, 6.49
- MNLRKILLSSALSLGMLVSAAPVLVTSS — higher, 6.87
- MKSKWMSGLLLVAVGFSFTQVMVHAGRR — higher, 7.76
- MRFTKVVGFLSVLGLAAVFPLTTQAEKA — lower, 4.74
- MKKQIITATTAVVLGSTLFARKKRKKASAQSI — higher, 7.27
- MKSKGSIMIFIFACLILFSFTITTFINTETISAFSN — higher, 7.77
- MRGKSAVLLSLIMLIAGFLISFTFQM — higher, 6.75
- MKKWMITIAMLILAGIALFVFISPLKWHKT — higher, 5.74
- MLCVMMLLFSAIASFPVSDQAKDQ — higher, 5.98
- MPYLKRVLLLLVTGLFMSLFAVTATASYQTG — lower, 1.77
- MKRVLTGSVLSLGLLVSASPAFATSP — lower, 1.56
- MKKGIIRFLLVSFVLFFALSTGITGKQAAPA — higher, 5.05
- MKKARRLSAAAAVGLFTFGGVQQASAKEL — lower, 3.35
- MKNMSCKLVVSVTLFFSFLTIGPLHHAQNS — higher, 5.75
- MNFKKTVVSALSISALALTVTSISVSGVASAHEI — lower, 3.48
- MKSKGSIMACLILFSFTITTFINTETISDFSN — higher, 6.98
- MKSLPYTIALLFCGLIIVSMAAKGHKK — higher, 6.13
- MKKQIITATTAVVLGSTLFAEDDDDEASAQSI — lower, 3.86
- MRNLTKTSLLLAGLCTAAQMVFVTHASAKKK — lower, 3.84
- MKRTWNVCLTALLSVLLVAGSVGFVAEAKKP — lower, 3.4
- MKKRFSLIMMFILLFMLMSPAFAAEK — lower, 3.79
- MMKKLFHSTLIVLLFFSFFGVQPIHAATR — lower, 2.55
- MKSKWMSGLLLVAVGFSFTQVMVHEGET — higher, 5.54
- MAIIIAIIAAVIVIAALITFIVIVIRNASPG — higher, 6.93
- MKKAFILSAAAAVGLFTFGASAKEL — higher, 5.43
- MRHKIITFILAVVVIIIIRKRKKRRGGSEATSK — higher, 4.98
- MKRIRIPMTLRKKRALTIAPLSFASAEEN — higher, 7.44
- MKSKGSIMACLILFSFTITTFINTETISAFSR — lower, 3.97
- MFGMSTISLLIIFLLASAVLAKPIEAHTV — lower, 2.54

MKKIMSAFVGMVLLTIFCFSPQASAAYD was tested, and the AmyQ secretion efficiency was 4.89 and 4.8.
